Assay results as given in US7326418B2, “Identification of novel factors that block programmed cell death or apoptosis by targeting JNK” (University of Chicago, priority 2001, dated 2008).

Molecular target: T1, GST-MKK7 (Homo sapiens, UniProt O14733, Q133P/Q94H)
T1 construct: made in house; host or cells: E. coli BL21
T1 sequence (O14733 1-401 Q94H/Q133P limits assumed): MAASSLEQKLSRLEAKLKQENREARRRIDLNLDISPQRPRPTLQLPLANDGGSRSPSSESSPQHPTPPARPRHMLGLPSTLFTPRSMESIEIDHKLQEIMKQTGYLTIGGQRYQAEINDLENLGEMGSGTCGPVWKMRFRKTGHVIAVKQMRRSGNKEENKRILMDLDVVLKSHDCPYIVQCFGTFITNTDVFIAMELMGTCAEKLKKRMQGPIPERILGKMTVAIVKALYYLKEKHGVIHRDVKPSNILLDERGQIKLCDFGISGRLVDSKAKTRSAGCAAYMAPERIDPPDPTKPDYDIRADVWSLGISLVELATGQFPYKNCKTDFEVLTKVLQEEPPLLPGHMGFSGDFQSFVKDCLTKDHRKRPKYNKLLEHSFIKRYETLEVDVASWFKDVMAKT
Assay: In vitro pull-down with purified proteins: His6/T7-tagged proteins binding to GST-MKK7
Conditions: JIP1 used under non-saturating conditions, read-out: half maximum binding (HMB) value for binding to GST-MKK7
Source text: Protein levels are shown (bottom). b, g, Coomassie brilliant blue staining (CS) showing purity of the proteins used in (c) and (d, e), respectively. c, In vitro pull-down assays with purified proteins showing direct interaction between His6/T7-Gadd45β (His6disclosed as SEQ ID NO: 46) and GST-MKK7. Precipitated GST proteins and bound His6/T7-tagged proteins(His6 disclosed as SEQ ID NO: 46) were visualized by CS and Western blotting (WB) with anti-T7 antibodies, respectively. Inputs of His6/T7-tagged proteins (His6 disclosed as SEQ ID NO: 46) are indicated. The fraction of His6/T7-Gadd45β (His6 disclosed as SEQ ID NO: 46) and His6/T7-JIP1 (His6 disclosed as SEQ ID NO: 46) binding to GST-MKK7 (expressed as arbitrary units [a.u.]; left) was calculated relatively to a standard curve generated with known protein concentrations^19. d, e, Kinase assays showing specific inhibition of active MKK7 by purified GST-Gadd45β and His6-Gadd45β (His6 disclosed as SEQ ID NO: 46), in vitro. […]
Interaction of endogenous Gadd45β and MKK7 was detected readily (FIG. 28a). […]
GST precipitations with in vitro-translated proteins or purified proteins (FIG. 26-30), and kinase assays were performed. […] MKK7 phosphorylation was monitored by performing immunoprecipitations with anti-P-MKK7 antibodies (developed at Cell Signaling) followed by Western blots with anti-total MKK7 antibodies. […]

B1: Gadd45β: purified recombinant His6-tagged Gadd45β protein; also used generically for the recombinant Gadd45β proteins (protein, UniProt O75293 1-160, looked up)
Growth arrest and DNA …: MTLEELVACDNAAQKMQTVTAAVEELLVAAQRQDRLTVGVYESAKLMNVDPDSVVLCLLAIDEEEEDDIALQIHFTLIQSFCCDNDINIVRVSGMQRLAQLLGEPAETQGTTEARDLHCLLVTNPHTDAWKSHGLVEVASYCEESRGNNQWVPYISLQER
modifications: His6 tag
notes: purified recombinant His6-tagged Gadd45β protein; also used generically for the recombinant Gadd45β proteins
  Kd: ~390 nM
